{"source": "paper PMC5972919", "about": "“A strategy for L-isoleucine dioxygenase screening and 4-hydroxyisoleucine production by resting cells” (Bioengineered, 2017)", "proteins": {"B1": {"name": "IDO (L-isoleucine dioxygenase) (Bacillus thuringiensis) (protein)", "chain": "MKMSGFSIEEKVHEFESKGFLEISNEIFLQEEENHRLLTQAQLDYYNLEDDAYGECRAGSYSRYIKYVDSPDYILDNSNDYFQSKEYNYDDGGKVRQFHSINDSFLYNPLIQNIVRFDTEFAFKTNIIDTSKDLIIGLHQVRYKATKERPSFSSPIWLHKDDEPVVFLHLMNLSNTAIGGDNLIANSPREINQFISLKEPLETLVFGQKVFHAVTPLGTECSTEAFRDILLVTFSYKETK", "notes": "motif His159-X-Asp161-X50-His212"}}, "substrate": "CC[C@H](C)[C@H](N)C(=O)O", "assay": "HPLC of 4-hydroxyisoleucine after precolumn derivatization; Michaelis-Menten fit", "type": "biochemical, Bacillus thuringiensis", "details": "apparent, L-Ile 0.02 to 5 mM, 10 mM alpha-ketoglutarate, 5 mM FeSO4, 10 mM ascorbic acid, 100 mM Tris-HCl pH 7.0, 30 °C", "text": "HPLC of 4-hydroxyisoleucine after precolumn derivatization; Michaelis-Menten fit on IDO (L-isoleucine dioxygenase)", "data": [{"protein": "B1", "values": [{"measurement": "Km", "value": 200, "unit": "µM"}, {"measurement": "Vmax", "value": 2.18, "unit": "µmol/min/mg"}, {"measurement": "kcat", "value": 0.0727, "unit": "s⁻¹"}, {"measurement": "kcat/Km", "value": 363, "unit": "M⁻¹ s⁻¹"}]}]}
